The source of these data is PMC9169620, “Helical self-assembly of a mucin segment suggests an evolutionary origin for von Willebrand factor tubules” (Proceedings of the National Academy of Sciences of the …, 2022).

Data set [1] concerns the molecule itself. The experiment in a line: dynamic light scattering; MUC2 D1D2D3 at 0.3 mg/mL in 50 mM MES at varying pH, 150 mM NaCl, 37 °C; large species at pH 5.8 and below.
Data set [2] deals with the molecule itself. Description: negative stain TEM; MUC2 D1D2D3 at 0.3 mg/mL in 50 mM MES (pH 5.4), 225 mM NaCl, 10 mM CaCl2, 37 °C for 24 h; diluted to 0.03 mg/mL, stained with 2% uranyl acetate.

B1: MUC2 D1D2D3 (residues 21 to 1259 followed by a His6 tag) (domain or fragment, human, UniProt Q02817 21-1259, looked up)
chain: SELQTEGRTRNHGHNVCSTWGNFHYKTFDGDVFRFPGLCDYNFASDCRGSYKEFAVHLKRGPGQAEAPAGVESILLTIKDDTIYLTRHLAVLNGAVVSTPHYSPGLLIEKSDAYTKVYSRAGLTLMWNREDALMLELDTKFRNHTCGLCGDYNGLQSYSEFLSDGVLFSPLEFGNMQKINQPDVVCEDPEEEVAPASCSEHRAECERLLTAEAFADCQDLVPLEPYLRACQQDRCRCPGGDTCVCSTVAEFSRQCSHAGGRPGNWRTATLCPKTCPGNLVYLESGSPCMDTCSHLEVSSLCEEHRMDGCFCPEGTVYDDIGDSGCVPVSQCHCRLHGHLYTPGQEITNDCEQCVCNAGRWVCKDLPCPGTCALEGGSHITTFDGKTYTFHGDCYYVLAKGDHNDSYALLGELAPCGSTDKQTCLKTVVLLADKKKNVVVFKSDGSVLLNELQVNLPHVTASFSVFRPSSYHIMVSMAIGVRLQVQLAPVMQLFVTLDQASQGQVQGLCGNFNGLEGDDFKTASGLVEATGAGFANTWKAQSSCHDKLDWLDDPCSLNIESANYAEHWCSLLKKTETPFGRCHSAVDPAEYYKRCKYDTCNCQNNEDCLCAALSSYARACTAKGVMLWGWREHVCNKDVGSCPNSQVFLYNLTTCQQTCRSLSEADSHCLEGFAPVDGCGCPDHTFLDEKGRCVPLAKCSCYHRGLYLEAGDVVVRQEERCVCRDGRLHCRQIRLIGQSCTAPKIHMDCSNLTALATSKPRALSCQTLAAGYYHTECVSGCVCPDGLMDDGRGGCVVEKECPCVHNNDLYSSGAKIKVDCNTCTCKRGRWVCTQAVCHGTCSIYGSGHYITFDGKYYDFDGHCSYVAVQDYCGQNSSLGSFSIITENVPCGTTGVTCSKAIKIFMGRTELKLEDKHRVVIQRDEGHHVAYTTREVGQYLVVESSTGIIVIWDKRTTVFIKLAPSYKGTVCGLCGNFDHRSNNDFTTRDHMVVSSELDFGNSWKEAPTCPDVSTNPEPCSLNPHRRSWAEKQCSILKSSVFSICHSKVDPKPFYEACVHDSCSCDTGGDCECFCSAVASYAQECTKEGACVFWRTPDLCPIFCDYYNPPHECEWHYEPCGNRSFETCRTINGIHSNISVSYLEGCYPRCPKDRPIYEEDLKKCVTADKCGCYVEDTHYPPGASVPTEETCKSCVCTNSSQVVCRPEEGKILNQTQDGAFCYWEICGPNGTVEKHFNICSIT
notes: Mucin-2 (MUC2), human intestinal gel-forming mucin, amino-terminal D1D2D3 region, residues 21 to 1259, without CysD1; The dimers assemble into two-start helical tubules at acidic pH; also called D1D2D3 fragment; MUC2 amino-terminal fragment spanning the D1D2D3 region but lacking CysD1; source: HEK 293F, transient transfection, purified from culture medium (Ni-NTA); not shown: His6, C-terminal, …
For the protein B1, the binding result in data set [1] was “binds”.

B2: MUC2 D1D2D3, with an amino-terminal His6 tag and TEV protease cleavage site and lacking a carboxy-terminal His6 (domain or fragment, human, UniProt Q02817 21-1259, looked up)
chain: B1 chain
notes: Mucin-2 (MUC2), human, D1D2D3 region; Made by restriction-free cloning from the plasmid of m1; also called D1D2D3 fragment produced with an amino-terminal His6 tag that was removed proteolytically; source: HEK 293F, transient transfection, purified from culture medium (Ni-NTA); tag removed proteolytically during purification; not shown: His6, N-terminal, cleaved
With B2, the binding result in data set [2] was “binds”.
